{"source": "patent US20250388643A1", "about": "“GLUCAGON-LIKE PEPTIDE-2 COMPOSITIONS AND METHODS OF MAKING AND USING SAME” (Amunix Pharmaceuticals, Inc., priority 2011, published 2025)", "molecules": {"B1": {"name": "GLP2-2G-XTEN_AE864: fusion protein of GLP-2 with glycine at position 2 linked at the C-terminus to XTEN AE864; sequence of FIG. 28 (SEQ ID NO: 798) (protein)", "chain": "HGDGSFSDEMNTILDNLAARDFINWLIQTKITDGGSPAGSPTSTEEGTSESATPESGPGTSTEPSEGSAPGSPAGSPTSTEEGTSTEPSEGSAPGTSTEPSEGSAPGTSESATPESGPGSEPATSGSETPGSEPATSGSETPGSPAGSPTSTEEGTSESATPESGPGTSTEPSEGSAPGTSTEPSEGSAPGSPAGSPTSTEEGTSTEPSEGSAPGTSTEPSEGSAPGTSESATPESGPGTSTEPSEGSAPGTSESATPESGPGSEPATSGSETPGTSTEPSEGSAPGTSTEPSEGSAPGTSESATPESGPGTSESATPESGPGSPAGSPTSTEEGTSESATPESGPGSEPATSGSETPGTSESATPESGPGTSTEPSEGSAPGTSTEPSEGSAPGTSTEPSEGSAPGTSTEPSEGSAPGTSTEPSEGSAPGTSTEPSEGSAPGSPAGSPTSTEEGTSTEPSEGSAPGTSESATPESGPGSEPATSGSETPGTSESATPESGPGSEPATSGSETPGTSESATPESGPGTSTEPSEGSAPGTSESATPESGPGSPAGSPTSTEEGSPAGSPTSTEEGSPAGSPTSTEEGTSESATPESGPGTSTEPSEGSAPGTSESATPESGPGSEPATSGSETPGTSESATPESGPGSEPATSGSETPGTSESATPESGPGTSTEPSEGSAPGSPAGSPTSTEEGTSESATPESGPGSEPATSGSETPGTSESATPESGPGSPAGSPTSTEEGSPAGSPTSTEEGTSTEPSEGSAPGTSESATPESGPGTSESATPESGPGTSESATPESGPGSEPATSGSETPGSEPATSGSETPGSPAGSPTSTEEGTSTEPSEGSAPGTSTEPSEGSAPGSEPATSGSETPGTSESATPESGPGTSTEPSEGSAPG"}}, "key": {"[1]": {"tested_on": "indomethacin-induced intestinal inflammation in Wistar rats", "experiment": "Rat Crohn's Disease indomethacin-induced intestinal inflammation model, Study 1", "type": "in vivo", "description": "To determine the efficacy of GLP2-XTEN using single dose or qd dosing, the GLP2-2G-XTEN-AE864 fusion protein was evaluated in a rat model of Crohn's Disease of indomethacin-induced intestinal inflammation in three separate studies.\nStudy 1: Intestinal inflammation was induced in eighty male Wistar rats (Harlan Sprague Dawley) using indomethacin administered on Days 0 and 1 of the experiment. The rats were divided into seven treatment groups for treatment according to Table 19.\nAll treatments were administered per the schedule starting on Day −3 of the experiment. Body weights were determined daily. Groups 3 and 5 were dosed equimolar/day. On Day 2 (24 hours post-2nd indomethacin dose), the animals were prepped for sacrifice and analysis. Thirty minutes prior to sacrifice, the rats were injected intravenously with 1 ml 1% Evans Blue dye, in order to visualize ulcers and extent of inflammation by histopathology analysis. The rats were anesthetized (SOP 1810), blood samples were removed to determine the concentration of GLP-2-2G-XTEN using the anti-XTEN/anti-GLP2 ELISA method. The rats were euthanized then necropsied and scored by gross examination of the intestines for the presence of adhesions; i.e., none=0, mild=1, moderate=2, or severe=3. The small intestines were removed and the length of each was recorded. In each small intestine, a longitudinal incision was made and the interior was examined. The degree and length of the ulcerated area was recorded as a score; i.e., none=0, few=1, multiple=2, or continuous=3. For TNFα determination, intestinal samples were thawed and homogenized in a total of 20 ml with DPBS. The supernatants were equilibrated to room temperature and assayed for TNFα by ELISA (R&D Systems, Cat. RTA00, lot 281687, exp. 7 Sep. 2011). The samples for Group 1 were assayed undiluted. The samples for Groups 2-7 were diluted 1:4. For histopathology, the small intestines were gently washed with saline to remove the fecal material and were blotted to remove excess fluid. Each small intestine was weighed then processed for histopathology examination to quantitate the degree of inflammation; i.e., 0.0%=0, 1-33%=1, 34-66%=2, 67-100%=3."}, "[2]": {"tested_on": "small intestine growth in rats", "experiment": "Intestinotrophic growth in normal rats (small intestine weight and length)", "type": "in vivo, rat", "description": "To determine the intestinotrophic properties of GLP2-XTEN, small intestine growth in rats was measured as a primary pharmacodynamic endpoint. […] GLP2-2G-XTEN was dosed at 25 nmol/kg once daily for 12 days. After sacrifice, a midline incision was made, the small intestines were removed, stretched to their maximum length and the length recorded. The fecal material was flushed from the lumen and the small intestinal wet weight recorded. The small intestine length and weight data were analyzed with an ANOVA model with a Tukey/Kramer post-hoc test for pairwise comparisons, with significance at p=0.05."}, "[3]": {"parameters": "species or system human", "excerpt": "The cumulative results of the PK analyses were used to perform allometric scaling of GLP2-2G_AE864 terminal half-life, clearance and volume of distribution using data from three species (mouse, rat and monkey). Pharmacokinetic values for a 70 kg human were predicted by extrapolating the log linear relationship between body weight and each pharmacokinetic parameter, as shown in FIG. 17. […] The terminal half-life in humans can also be estimated using the predicted values for clearance (Cl) and volume of distribution (Vd) as 0.693×Vd/Cl."}, "[4]": {"tested_on": "indomethacin-induced intestinal inflammation in Wistar rats", "type": "in vivo, rat", "description": "Study 2: Intestinal inflammation was induced in eighty male Wistar rats (Harlan Sprague Dawley) using indomethacin administered on Days 0 and 1 of the experiment. The rats were divided into eight treatment groups for treatment according to Table 20. All treatments were administered per the schedule starting on Day-3 of the experiment. Body weights were determined daily. On Day 2 (24 hours post-2nd indomethacin dose), the animals were prepped for sacrifice and analysis. Thirty minutes prior to sacrifice, the rats were injected intravenously with 1 ml 1% Evans Blue dye, in order to visualize ulcers and extent of inflammation by histopathology analysis. The rats were anesthetized and blood samples were removed to determine the concentration of GLP-2-2G-XTEN using the anti-XTEN/anti-GLP2 ELISA method. The rats were euthanized then necropsied and scored by gross examination of the intestines for the presence of adhesions; i.e., none=0, mild=1, moderate=2, or severe=3. The small intestines were removed and the length of each was recorded. In each small intestine, a longitudinal incision was made and the interior was examined. The degree and length of the ulcerated area was recorded as a score; i.e., none=0, few=1, multiple=2, or continuous=3. The fecal material was washed away with saline and blotted to remove excess fluid and each small intestine was weighed then processed for histopathology examination to quantitate the degree of inflammation; i.e., 0.0%=0, 1-33%=1, 34-66%=2, 67-100%=3."}, "[5]": {"conditions": "normal Sprague-Dawley rats, SC 12 days, peptide 12.5 nmol/kg twice daily, fusion protein 25 nmol/kg once daily"}}, "note": "Entries after “also recorded” stand apart in the source; their conditions may differ. Read-outs that look alike come from different tables or passages of the source. Marks after values point to notes of the source that are not given here.", "data": [{"molecule": "B1", "values": [{"measurement": "small intestine weight", "setting": "[1]; 0.5 mg/kg peptide, both fusion protein groups, compared to diseased control Group 2, FIG. 21C", "result": "significant increase"}, {"measurement": "ulceration score", "setting": "[1]; 6 mg/kg fusion protein", "result": "not significantly different from the non-diseased control"}, {"measurement": "scores of adhesions and transulceration", "setting": "[1]; 2 and 6 mg/kg fusion protein", "result": "not significantly different from the non-diseased control"}, {"measurement": "small intestine length", "setting": "[1]; FIG. 21B", "result": "significant increase; also recorded: length equivalent to the non-diseased control"}, {"measurement": "ulceration (gross pathology scoring of small intestine)", "setting": "[1]; FIG. 21D", "result": "significant decreases in ulceration"}, {"measurement": "small intestine inflammation score", "setting": "[1]; FIG. 21F", "result": "neither the GLP-2-2G peptide nor the GLP-2-2G-XTEN fusion protein treatments showed a significant effect on inflammation"}, {"measurement": "body weight at termination", "setting": "[1]; compared to disease control (Group 2), FIG. 21A", "result": "demonstrated a significant increase"}, {"measurement": "scores of adhesions and transulceration", "setting": "[1]; compared to diseased control (Group 2), FIG. 21E", "result": "significant decreases"}, {"measurement": "TNFα in small intestine (ELISA)", "setting": "[1]; compared to diseased control Group 2, FIG. 21G", "result": "significantly decreased cytokine levels"}, {"measurement": "efficacy in improving indomethacin-induced small intestine damage", "setting": "[1]; equal nmol/kg dosing", "result": "as good or better than GLP2-2G peptide"}, {"measurement": "small intestine growth compared with GLP2-2G peptide", "setting": "[2]; equal nmol/kg dosing", "result": "as good or better than GLP2-2G peptide"}, {"measurement": "increase in small intestine length", "setting": "[2]; [5]", "result": 9, "unit": "%"}, {"measurement": "increase in small intestine weight", "setting": "[2]; [5]", "result": 31, "unit": "%"}, {"measurement": "increase in small intestine length", "setting": "[2]; normal rats, 25 nmol/kg once daily for 12 days", "result": 10, "unit": "cm"}, {"measurement": "Cl", "setting": "[3]", "result": "17* ml/hr"}, {"measurement": "T ½", "setting": "[3]", "result": "240* hr"}, {"measurement": "Vd", "setting": "[3]", "result": "91* mL/kg"}, {"measurement": "protection of the intestines from inflammatory effects of indomethacin", "setting": "[4]; conclusion of the experiment", "result": "provided significant protection to the intestines from the inflammatory effects of indomethacin"}, {"measurement": "histopathology: protective effects", "setting": "[4]; daily bid peptide, once-daily fusion protein", "result": "most pronounced in the ileum, but were also seen in the jejunum"}, {"measurement": "efficacy by regimen", "setting": "[4]; daily dosing at 2 mg/kg", "result": "greatest efficacy"}, {"measurement": "adhesions score", "setting": "[4]; once-daily fusion protein, daily bid peptide, FIG. 22B", "result": "nearly complete protection from adhesions"}, {"measurement": "small intestine length", "setting": "[4]; once-daily fusion protein, daily bid peptide, vs indomethacin-treated vehicle control", "result": "reached statistically significant difference"}, {"measurement": "total disease score", "setting": "[4]; peptide delivered bid, fusion protein delivered qd, vs indomethacin-treated vehicle control", "result": "significantly improved scores"}, {"measurement": "fusion protein in blood samples (anti-XTEN/anti-GLP2 ELISA)", "setting": "[4]; rat, in vivo", "result": "detectable at Day 2 in all animals of Group 4 and Group 8, and three rats in Group 7"}, {"measurement": "total disease score", "setting": "[4]; single doses at 6 or 2 mg/kg, vs indomethacin-treated vehicle control", "result": "significantly improved scores"}, {"measurement": "efficacy by regimen", "setting": "[4]; single doses of 6 mg/kg or 2 mg/kg", "result": "significant efficacy in some parameters"}, {"measurement": "adhesions score", "setting": "[4]; single high-dose 6 mg/kg", "result": "reached statistically significant difference"}]}]}
